One substance from patent publication US20090104207A1 can be followed below.

The assay concerns the target E1s (hepatitis C virus). Put plainly: coating ELISA, E1s at 0.5 µg/ml, hybridoma supernatant. On the technique in general: ELISA stands for enzyme-linked immunosorbent assay.

Bounds are passed on as bounds.

4G2 (antibody) gave an O.D. (450-595 nm) of more than 2 O.D.
